{"source": "paper PMC4023160", "key": {"ClpP protease [1]": {"target": "ClpP protease (UniProt P0A6G7)", "sequence (P0A6G7 15-207)": "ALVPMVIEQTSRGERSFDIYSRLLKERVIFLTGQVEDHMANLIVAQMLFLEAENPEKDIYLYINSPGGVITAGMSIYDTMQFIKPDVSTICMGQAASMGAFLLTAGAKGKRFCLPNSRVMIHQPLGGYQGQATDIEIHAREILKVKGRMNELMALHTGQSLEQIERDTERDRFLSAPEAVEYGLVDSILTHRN", "test": "HDX-MS; BAP (100 pmol) with ClpP (200 pmol), 3 min at 30°C in low salt buffer A (50 mM Tris pH 7.5, 25 mM KCl, 20 mM MgCl2, 2 mM DTT) with ATPγS, diluted 20-fold into D2O buffer, 60 s exchange; mass of full length BAP"}, "[2]": {"target": "BAP (ClpB with the ClpA tripeptide for ClpP binding), wild type (E. coli | not stated)", "test": "negative-stain EM single-particle reconstruction; BAP(HAP)-ClpP complexes formed in 20 mM Tris-HCl pH 7.5, 20 mM KCl, 15 mM MgCl2, 1 mM DTT, 2 mM ATPγS; stained with 2% uranyl acetate; side views of 2:2 complexes cut into 1:1 halves; sixfold symmetry imposed or none"}, "ClpP protease [3]": {"target": "ClpP protease (UniProt P0A6G7)", "test": "negative-stain EM single-particle reconstruction; BAP(HAP)-ClpP complexes formed in 20 mM Tris-HCl pH 7.5, 20 mM KCl, 15 mM MgCl2, 1 mM DTT, 2 mM ATPγS; stained with 2% uranyl acetate; side views of 2:2 complexes cut into 1:1 halves; sixfold symmetry imposed or none"}, "[4]": {"target": "BAP Trap (E279A/E678A) variant (E. coli | not stated)", "test": "cryo-EM structure; BAPtrap-ClpP and ClpB alone, vitrified, in the presence of ATPγS; side views only"}, "[5]": {"target": "BAP-E432A (repressed mutant) (E. coli | not stated)", "test": "negative-stain EM single-particle reconstruction; BAP(HAP)-ClpP complexes formed in 20 mM Tris-HCl pH 7.5, 20 mM KCl, 15 mM MgCl2, 1 mM DTT, 2 mM ATPγS; stained with 2% uranyl acetate; side views of 2:2 complexes cut into 1:1 halves; sixfold symmetry imposed or none"}, "[6]": {"target": "HAP (Hsp104 with the ClpA tripeptide for ClpP binding) (S. cerevisiae)", "test": "negative-stain EM single-particle reconstruction; BAP(HAP)-ClpP complexes formed in 20 mM Tris-HCl pH 7.5, 20 mM KCl, 15 mM MgCl2, 1 mM DTT, 2 mM ATPγS; stained with 2% uranyl acetate; side views of 2:2 complexes cut into 1:1 halves; sixfold symmetry imposed or none"}}, "data": [{"substance": "BAP (ClpB with the ClpA tripeptide for ClpP binding), wild type", "values": [{"measurement": "amide protons in BAP protected from exchange by ClpP (amide protons)", "setting": "ClpP protease [1]", "result": 30}, {"measurement": "stoichiometry N", "setting": "[2]", "result": 6}, {"measurement": "stoichiometry N (BAP hexamers per ClpP double-heptamer)", "setting": "ClpP protease [3]", "result": 2}]}, {"substance": "BAP Trap (E279A/E678A) variant", "values": [{"measurement": "stoichiometry N", "setting": "[4]", "result": 6}]}, {"substance": "BAP-E432A (repressed mutant)", "values": [{"measurement": "stoichiometry N", "setting": "[5]", "result": 6}]}, {"substance": "HAP (Hsp104 with the ClpA tripeptide for ClpP binding)", "values": [{"measurement": "stoichiometry N", "setting": "[6]", "result": 6}]}]}
